Measurements from patent US20250026850A1 (TRISHULA THERAPEUTICS, published 2025).

Experiments:
[1] = biological target: T1, rhCD39-ECD-His (R&D Systems) (human, UniProt P49961 38-478); assay: BLI (Octet), IgG on anti-human Fc sensor, rhCD39-ECD-His 10-300 nM, 1:1 fit
T1 construct: Bought protein; that entry runs on through the C-terminal transmembrane and cytoplasmic residues; also called recombinant human CD39 extracellular domain; soluble recombinant human CD39 (ENTDP1) ECD; not shown: His tag
T1 sequence: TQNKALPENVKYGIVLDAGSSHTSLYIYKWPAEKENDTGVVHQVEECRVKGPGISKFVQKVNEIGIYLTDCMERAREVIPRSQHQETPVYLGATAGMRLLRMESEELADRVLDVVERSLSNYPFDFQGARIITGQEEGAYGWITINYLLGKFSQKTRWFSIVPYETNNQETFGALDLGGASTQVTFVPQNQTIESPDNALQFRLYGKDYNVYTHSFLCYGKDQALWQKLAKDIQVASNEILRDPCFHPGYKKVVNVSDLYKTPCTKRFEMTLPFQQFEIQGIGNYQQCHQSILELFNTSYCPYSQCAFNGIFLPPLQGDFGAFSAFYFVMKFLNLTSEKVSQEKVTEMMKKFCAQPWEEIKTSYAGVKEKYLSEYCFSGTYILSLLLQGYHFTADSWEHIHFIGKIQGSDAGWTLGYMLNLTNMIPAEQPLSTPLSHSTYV
Procedure: The kinetic data was globally fit with a simple 1:1 Langmuir binding model to yield on-rate (kon) and off-rate (koff) values. The equilibrium dissociation constants (KD) were calculated from the kon and koff values.
Binding kinetics were measured using the Octet Red96 system (ForteBio) at 25° C. in running buffer (1× Pall ForteBio Kinetics Buffer diluted into PBS or Tris pH 7.4). […] After a short baseline step in running buffer, the sensors were exposed to varying concentrations (10-300 nM) of rhCD39-ECD-His (R&D Systems) for the association step. Dissociation of the complex was monitored upon exposure of the sensors to running buffer once again. Data was processed using ForteBio Octet software with baseline subtraction, global fit and 1:1 binding model to obtain association and dissociation rates. KD was calculated from the ratio of kd to kₐ.

[2] = biological target: T2, cynomolgus macaque (Macaca fascicularis) CD39 on cells (cynomolgus macaque (Macaca fascicularis), UniProt P49961 7-510 (human entry)); assay: flow cytometry, 100 nM IgG, cCD39-CHO cells; MFI ratio to parental CHO
T2 construct: CHO cells engineered to express cyno CD39, or primary cyno B cells and monocytes; also called cyno CD39; cCD39
T2 chain: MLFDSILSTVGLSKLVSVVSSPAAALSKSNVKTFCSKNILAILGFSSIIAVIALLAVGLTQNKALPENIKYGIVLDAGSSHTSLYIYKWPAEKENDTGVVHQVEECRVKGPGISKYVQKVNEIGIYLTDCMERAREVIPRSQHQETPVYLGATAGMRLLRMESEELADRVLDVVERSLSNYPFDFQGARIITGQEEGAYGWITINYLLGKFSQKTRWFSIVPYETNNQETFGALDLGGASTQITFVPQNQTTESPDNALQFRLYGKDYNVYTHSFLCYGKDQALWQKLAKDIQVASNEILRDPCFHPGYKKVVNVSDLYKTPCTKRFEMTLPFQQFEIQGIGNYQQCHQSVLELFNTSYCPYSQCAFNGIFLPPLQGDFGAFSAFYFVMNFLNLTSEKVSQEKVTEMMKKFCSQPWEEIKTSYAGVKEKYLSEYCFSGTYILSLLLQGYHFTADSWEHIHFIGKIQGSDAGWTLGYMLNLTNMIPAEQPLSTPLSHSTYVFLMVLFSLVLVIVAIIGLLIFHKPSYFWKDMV
Procedure: (§1) 100 nanomolar IgGs (each antibody is indicated as a unique clone number in the FIG.) were incubated at […] 30 minutes on ice in phosphate buffered saline (PBS) with parental CHO cells or CHO cells engineered to express either human or cynomolgus macaque (Macaca fascicularis) CD39 (CHO CD39 cells). Cells were then washed with ice cold PBS and incubated with a fluorescently labeled goat-anti-human IgG for 20 minutes on ice. Cells were washed and resuspended in ice cold PBS prior to analysis by flow cytrometry.

human CD39 on cells = biological target: T3, human CD39 on cells (human, UniProt P49961 1-510); assay: flow cytometry, 100 nM IgG, hCD39-CHO cells; MFI ratio to parental CHO
T3 construct: One molecule for all cells that carry human CD39; the cell is named under assay; also called hCD39; cellular CD39
T3 sequence: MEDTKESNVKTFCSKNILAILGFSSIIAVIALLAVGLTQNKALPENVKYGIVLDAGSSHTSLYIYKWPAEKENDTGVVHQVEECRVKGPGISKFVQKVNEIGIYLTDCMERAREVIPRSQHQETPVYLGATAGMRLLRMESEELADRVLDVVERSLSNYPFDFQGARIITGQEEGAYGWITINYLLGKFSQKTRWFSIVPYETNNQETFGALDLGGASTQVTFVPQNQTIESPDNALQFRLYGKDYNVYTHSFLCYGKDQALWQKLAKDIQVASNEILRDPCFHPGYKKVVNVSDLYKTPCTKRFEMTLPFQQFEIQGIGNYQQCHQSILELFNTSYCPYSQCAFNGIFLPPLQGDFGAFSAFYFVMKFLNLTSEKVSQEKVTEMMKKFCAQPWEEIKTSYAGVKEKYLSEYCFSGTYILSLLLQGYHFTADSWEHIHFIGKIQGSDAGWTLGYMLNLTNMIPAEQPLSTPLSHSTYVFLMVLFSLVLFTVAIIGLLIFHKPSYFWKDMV
Procedure: as §1

B1: 27577 (antibody, V domains shown)
VH: QVQLVQSGAEVKKPGSSVKVSCKASGGAFSSYAIGWVRQAPGQGLEWMGGIIPTFGTANYAQKFQGRVTITADESTSTAYMELSSLRSEDTAVYYCARDGGGYQHHYFDLWGRGTLVTVSS
VL: EIVMTQSPATLSVSPGERATLSCRASQSVGSNLAWYQQKPGQAPRLLIYGASTRATGIPARFSGSGSGTEFTLTISSLQSEDFAVYYCQQLTKWPLTFGGGTKVEIKR
- Kd [1]: 409 nM
- koff [1]: 0.365 s⁻¹
- kon [1]: 893000 M⁻¹ s⁻¹
- Cell Binding (FOB) [2]: 339 FOB
- Cell Binding (FOB) (human CD39 on cells): 390 FOB

B2: 29871 (antibody, V domains shown)
VH: QVQLVQSGAEVKKPGASVKVSCKASGYTFQSYYMHWVRQAPGQGLEWMGKINPSGGSTWYAQKFQGRVTMTRDTSTSTVYMELSSLRSEDTAVYYCARGKREGGTEYLRHWGQGTLVTVSS
VL: EIVLTQSPGTLSLSPGERATLSCRASQSVSSSYLAWYQQKPGQAPRLLIYGASSRATGIPDRFSGSGSGTDFTLTISRLEPEDFAVYYCQQYHSYITFGGGTKVEIK
- Kd [1]: 244 nM
- koff [1]: 0.0666 s⁻¹
- kon [1]: 273000 M⁻¹ s⁻¹
- Cell Binding (FOB) [2]: 3350 FOB
- Cell Binding (FOB) (human CD39 on cells): 451 FOB

B3: 31421 (antibody, V domains shown)
VH: QVQLVQSGAEVKKPGASVKVSCKASGYTFFSYYMYWVRQAPGQGLEWMGVINPLGGGTSYAQKFQGRVTMTRDTSTSTVYMELSSLRSEDTAVYYCARGKREGGTEYLRHWGQGTLVTVSS
VL: EIVLTQSPGTLSLSPGERATLSCKASESVSSSYLAWYQQKPGQAPRLLIYYASSRATGIPDRFSGSGSGTDFTLTISRLEPEDFAVYYCQQYHRRITFGGGTKVEIK
- Kd [1]: 18.8 nM
- koff [1]: 0.00526 s⁻¹
- kon [1]: 281000 M⁻¹ s⁻¹
- Cell Binding (FOB) [2]: 3050 FOB
- Cell Binding (FOB) (human CD39 on cells): 1080 FOB

B4: 27588 (antibody, V domains shown)
VH: QVQLVQSGAEVKKPGSSVKVSCKASGGTFSNYAISWVRQAPGQGLEWMGGIIPIFGTANYAQKFQGRVTITADESTSTAYMELSSLRSEDTAVYYCARAKRGYDSYGGVYFDYWGQGTLVTVSS
VL: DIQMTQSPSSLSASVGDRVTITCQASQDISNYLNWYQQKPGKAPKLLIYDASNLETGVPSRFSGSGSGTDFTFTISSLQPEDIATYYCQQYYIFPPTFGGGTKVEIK
- Kd [1]: 54.9 nM
- koff [1]: 0.00644 s⁻¹
- kon [1]: 117000 M⁻¹ s⁻¹
- Cell Binding (FOB) [2]: 14 FOB
- Cell Binding (FOB) (human CD39 on cells): 10 FOB

B5: 27589 (antibody, V domains shown)
VH: QVQLVQSGAEVKKPGSSVKVSCKASGGTFSSYAISWVRQAPGQGLEWMGGIIPIFGTANYAQKFQGRVTITADESTSTAYMELSSLRSEDTAVYYCARDSGYHRHYSDYWGQGTLVTVSS
VL: DIQMTQSPSTLSASVGDRVTITCRASQSISSWLAWYQQKPGKAPKLLIYKASSLESGVPSRFSGSGSGTEFTLTISSLQPDDFATYYCQQYGLFPITFGGGTKVEIKR
- Kd [1]: 191 nM
- koff [1]: 0.0385 s⁻¹
- kon [1]: 202000 M⁻¹ s⁻¹
- Cell Binding (FOB) [2]: 531 FOB
- Cell Binding (FOB) (human CD39 on cells): 311 FOB

B6: 27590 (antibody, V domains shown)
VH: QVQLVQSGAEVKKPGSSVKVSCKASGGTFSNYAISWVRQAPGQGLEWMGGIIPIFGTANYAQKFQGRVTITADESTSTAYMELSSLRSEDTAVYYCARGPTVTATTSIGTHNWFDPWGQGTLVTVSS
VL: EIVLTQSPATLSLSPGERATLSCRASQSVSSYLAWYQQKPGQAPRLLIYDASNRATGIPARFSGSGSGTDFTLTISSLEPEDFAVYYCQQRNFYPPTFGGGTKVEIK
- Kd [1]: 131 nM
- koff [1]: 0.023 s⁻¹
- kon [1]: 176000 M⁻¹ s⁻¹
- Cell Binding (FOB) [2]: 44 FOB
- Cell Binding (FOB) (human CD39 on cells): 33 FOB

B7: 27596 (antibody, V domains shown)
VH: QVQLVQSGAEVKKPGSSVKVSCKASGGTFSSYAISWVRQAPGQGLEWMGGIIPIFGTANYAQKFQGRVTITADESTSTAYMELSSLRSEDTAVYYCARDPLGIRKHWFDPWGQGTLVTVSS
VL: EIVMTQSPATLSLSPGERATLSCRASQSVSSYLAWYQQKPGQAPRLLIYDASNRATGIPARFSGSGSGTDFTLTISSLEPEDFAVYYCQQHTVWPITFGGGTKVEIKR
- Kd [1]: 31.1 nM
- koff [1]: 0.0533 s⁻¹
- kon [1]: 1.72e+06 M⁻¹ s⁻¹
- Cell Binding (FOB) [2]: 257 FOB
- Cell Binding (FOB) (human CD39 on cells): 252 FOB

B8: 27597 (antibody, V domains shown)
VH: QVQLVQSGAEVKKPGSSVKVSCKASGGTFSSYAISWVRQAPGQGLEWMGSIIPIFGTANYAQKFQGRVTITADESTSTAYMELSSLRSEDTAVYYCAREGRGYDSSRYYKFWFDPWGQGTLVTVSS
VL: EIVLTQSPATLSLSPGERATLSCRASQSVSSYLAWYQQKPGQAPRLLIYDASNRATGIPARFSGSGSGTDFTLTISSLEPEDFAVYYCQQFVLWPRTFGGGTKVEIKR
- Kd [1]: 335 nM
- koff [1]: 0.0914 s⁻¹
- kon [1]: 273000 M⁻¹ s⁻¹
- Cell Binding (FOB) [2]: 908 FOB
- Cell Binding (FOB) (human CD39 on cells): 799 FOB

B9: 29852 (antibody, V domains shown)
VH: QVQLVQSGAEVKKPGSSVKVSCKASGGTFSAMAISWVRQAPGQGLEWMGGILPIAGTANYAQKFQGRVTITADESTSTAYMELSSLRSEDTAVYYCARGGAKYASTYGMDVWGQGTTVTVSS
VL: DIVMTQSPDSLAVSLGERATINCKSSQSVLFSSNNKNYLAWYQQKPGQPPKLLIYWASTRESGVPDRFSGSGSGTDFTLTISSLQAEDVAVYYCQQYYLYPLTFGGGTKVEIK
- Kd [1]: 0.266 nM
- koff [1]: 0.000134 s⁻¹
- kon [1]: 503000 M⁻¹ s⁻¹
- Cell Binding (FOB) [2]: 1420 FOB
- Cell Binding (FOB) (human CD39 on cells): 337 FOB

B10: 28347 (antibody, V domains shown)
VH: QVQLVQSGAEVKKPGSSVKVSCKASGGTFSSLAISWVRQAPGQGLEWMGGIIPIFGTANYAQKFQGRVTITADESTNTAYMELSSLRSEDTAVYYCARGGAKYASTYGMDVWGQGTTVTVSS
VL: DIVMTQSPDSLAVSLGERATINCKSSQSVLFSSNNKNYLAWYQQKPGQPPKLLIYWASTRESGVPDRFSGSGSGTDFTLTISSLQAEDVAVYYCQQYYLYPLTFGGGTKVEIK
- Kd [1]: 9.05 nM
- koff [1]: 0.00815 s⁻¹
- kon [1]: 901000 M⁻¹ s⁻¹
- Cell Binding (FOB) [2]: 1340 FOB
- Cell Binding (FOB) (human CD39 on cells): 1020 FOB

B11: 29851 (antibody, V domains shown)
VH: QVQLVQSGAEVKKPGSSVKVSCKASGGTFASLAISWVRQAPGQGLEWMGGILPIFGEANYAQKFQGRVTITADESTSTAYMELSSLRSEDTAVYYCARGGAKYASTYGMDVWGQGTTVTVSS
VL: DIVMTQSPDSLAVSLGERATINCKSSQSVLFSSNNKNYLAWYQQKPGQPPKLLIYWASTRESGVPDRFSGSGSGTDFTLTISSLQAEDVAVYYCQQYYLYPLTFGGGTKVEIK
- Kd [1]: 1.23 nM
- koff [1]: 0.000385 s⁻¹
- kon [1]: 313000 M⁻¹ s⁻¹
- Cell Binding (FOB) [2]: 398 FOB
- Cell Binding (FOB) (human CD39 on cells): 129 FOB

B12: 29857 (antibody, V domains shown)
VH: QVQLVQSGAEVKKPGSSVKVSCKASGGTFSWLAISWVRQAPGQGLEWMGGIIPRGGTANYAQKFQGRVTITADESTSTAYMELSSLRSEDTAVYYCARGGAKYASTYGMDVWGQGTTVTVSS
VL: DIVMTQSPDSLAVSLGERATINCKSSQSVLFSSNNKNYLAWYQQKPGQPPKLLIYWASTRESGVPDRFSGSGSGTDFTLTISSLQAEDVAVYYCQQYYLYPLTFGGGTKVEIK
- Kd [1]: 0.76 nM
- koff [1]: 0.000229 s⁻¹
- kon [1]: 302000 M⁻¹ s⁻¹
- Cell Binding (FOB) [2]: 1140 FOB
- Cell Binding (FOB) (human CD39 on cells): 224 FOB

B13: 31432 (antibody, V domains shown)
VH: QVQLVQSGAEVKKPGSSVKVSCKASGGTFSHTAISWVRQAPGQGLEWMGGILPIGGTANYAQKFQGRVTITADESTSTAYMELSSLRSEDTAVYYCARGGAKYASQLGMDVWGQGTTVTVSS
VL: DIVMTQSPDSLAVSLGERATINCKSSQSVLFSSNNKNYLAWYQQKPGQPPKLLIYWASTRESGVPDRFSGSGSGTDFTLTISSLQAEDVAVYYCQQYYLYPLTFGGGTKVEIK
- Kd [1]: 1.07 nM
- koff [1]: 0.000286 s⁻¹
- kon [1]: 268000 M⁻¹ s⁻¹
- Cell Binding (FOB) [2]: 5700 FOB
- Cell Binding (FOB) (human CD39 on cells): 1170 FOB
